Legend:
[1] = target: T1, purified recombinant A3G-His6 (human APOBEC3G with C-terminal Myc-His6 tag, expressed in 293T cells) (human), Q9HC16
[2] = target: T1, purified recombinant A3G-His6 (human …); test: cell-based or functional assay

T1 sequence (Q9HC16 whole entry): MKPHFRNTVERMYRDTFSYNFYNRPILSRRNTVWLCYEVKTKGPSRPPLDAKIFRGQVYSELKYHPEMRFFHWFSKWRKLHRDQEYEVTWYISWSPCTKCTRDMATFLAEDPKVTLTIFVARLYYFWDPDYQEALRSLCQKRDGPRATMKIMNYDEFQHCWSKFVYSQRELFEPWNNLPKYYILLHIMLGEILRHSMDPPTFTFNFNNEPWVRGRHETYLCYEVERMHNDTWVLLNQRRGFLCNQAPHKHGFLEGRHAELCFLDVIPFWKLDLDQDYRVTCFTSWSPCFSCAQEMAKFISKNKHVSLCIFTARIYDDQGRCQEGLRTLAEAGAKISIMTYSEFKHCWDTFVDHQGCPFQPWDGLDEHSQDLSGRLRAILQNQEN

Binder | K'I [1] | Ki [1] | IC50 of inhibition of A3G deaminase activity [2] | inhibition of A3G deaminase activity [2] | IC50 of inhibition of deaminase activity of purified A3G (experimental repeat) [2]
QLIHLYYFDCFSESA (modifications not checked) [Vif105-119 peptide] | 92 nM | 68 nM | 100 nM | 1 µM | –
VKHHMYISGKAKGWF (modifications not checked) [Vif25-39 peptide] | 250 nM | – | 600 nM | 1 µM | 1000 nM
